Source: patent US20120128663A1

target: FcRn (human) (UniProt P55899); assay: Biacore; pH 6.0

Row | Ka | Kd | koff | Substance
1 | 1.42e+06 M⁻¹ | 706 nM |  | IgG1 Y436W
2 |  |  | 0.179 s⁻¹ | IgG1/2 N434S/A378G
3 |  |  | 0.0902 s⁻¹ | IgG1/2 N434S/A378S
4 |  |  | 0.231 s⁻¹ | IgG1/2 N434S/D312R
5 |  |  | 0.163 s⁻¹ | IgG1/2 N434S/D312Y
6 |  |  | 0.117 s⁻¹ | IgG1/2 N434S/H285D
7 |  |  | 0.818 s⁻¹ | IgG1/2 N434S/I253M
8 |  |  | 0.17 s⁻¹ | IgG1/2 N434S/K288I
9 |  |  | 0.147 s⁻¹ | IgG1/2 N434S/K288N
10 |  |  | 0.154 s⁻¹ | IgG1/2 N434S/K288W
11 |  |  | 0.162 s⁻¹ | IgG1/2 N434S/K288Y
12 |  |  | 0.142 s⁻¹ | IgG1/2 N434S/K338H
13 |  |  | 0.141 s⁻¹ | IgG1/2 N434S/K338R
14 |  |  | 0.148 s⁻¹ | IgG1/2 N434S/N286I
15 | 2.69e+06 M⁻¹ | 372 nM | 0.094 s⁻¹ | IgG1/2 N434S/N286L
16 |  |  | 0.122 s⁻¹ | IgG1/2 N434S/Q438F
17 |  |  | 0.113 s⁻¹ | IgG1/2 N434S/Q438N
18 |  |  | 0.139 s⁻¹ | IgG1/2 N434S/Q438Y
19 |  |  | 0.189 s⁻¹ | IgG1/2 N434S/R255H
20 |  |  | 0.0965 s⁻¹ | IgG1/2 N434S/R255P
21 |  |  | 0.186 s⁻¹ | IgG1/2 N434S/R255Q

Row | Ka | Kd | koff | Substance
22 |  |  | 0.107 s⁻¹ | IgG1/2 N434S/R255W
23 |  |  | 0.134 s⁻¹ | IgG1/2 N434S/S426H
24 |  |  | 0.173 s⁻¹ | IgG1/2 N434S/S426L
25 |  |  | 0.149 s⁻¹ | IgG1/2 N434S/S426M
26 |  |  | 0.0749 s⁻¹ | IgG1/2 N434S/T307D
27 |  |  | 0.087 s⁻¹ | IgG1/2 N434S/T307F
28 |  |  | 0.0818 s⁻¹ | IgG1/2 N434S/T307G
29 |  |  | 0.111 s⁻¹ | IgG1/2 N434S/T307I
30 |  |  | 0.211 s⁻¹ | IgG1/2 N434S/T307K
31 |  |  | 0.137 s⁻¹ | IgG1/2 N434S/T307L
32 |  |  | 0.0653 s⁻¹ | IgG1/2 N434S/T307M
33 |  |  | 0.116 s⁻¹ | IgG1/2 N434S/V284D
34 | 2.75e+06 M⁻¹ | 363 nM | 0.0981 s⁻¹ | IgG1/2 N434S/V284E
35 |  |  | 0.138 s⁻¹ | IgG1/2 N434S/V309E
36 |  |  | 0.364 s⁻¹ | IgG1/2 N434S/V309H
37 |  |  | 0.13 s⁻¹ | IgG1/2 N434S/V309I
38 |  |  | 0.227 s⁻¹ | IgG1/2 N434S/V309Q
39 |  |  | 0.329 s⁻¹ | IgG1/2 N434S/V309R
40 | 5.14e+06 M⁻¹ | 194 nM |  | IgG1/2 N434S/Y436I
41 | 2.91e+06 M⁻¹ | 344 nM |  | IgG1/2 N434S/Y436W
42 | 3.15e+06 M⁻¹ | 317 nM |  | IgG1/2 Y436W

Further lines, the substance ahead of its results:

Row | Substance | Ka | Kd | koff
43 | IgG1 N434S | 1.71e+06 M⁻¹ | 583 nM | 
44 | IgG1 Y436V | 1.46e+06 M⁻¹ | 683 nM | 
45 | IgG1/2 M428L/N434S | 5.92e+06 M⁻¹ | 169 nM | 0.0416 s⁻¹
46 | IgG1/2 N434S/D249G |  |  | 0.142 s⁻¹
47 | IgG1/2 N434S/D312K |  |  | 0.221 s⁻¹
48 | IgG1/2 N434S/H433G |  |  | 0.121 s⁻¹
49 | IgG1/2 N434S/I253V |  |  | 0.98 s⁻¹
50 | IgG1/2 N434S/K248Y |  |  | 0.176 s⁻¹
51 | IgG1/2 N434S/K288F |  |  | 0.158 s⁻¹
52 | IgG1/2 N434S/K288H |  |  | 0.121 s⁻¹
53 | IgG1/2 N434S/K288L |  |  | 0.164 s⁻¹
54 | IgG1/2 N434S/K288Q |  |  | 0.162 s⁻¹
55 | IgG1/2 N434S/M428I |  |  | 0.117 s⁻¹
56 | IgG1/2 N434S/M428V |  |  | 0.153 s⁻¹
57 | IgG1/2 N434S/N286D | 2.36e+06 M⁻¹ | 423 nM | 0.0991 s⁻¹
58 | IgG1/2 N434S/N286F |  |  | 0.12 s⁻¹
59 | IgG1/2 N434S/N286G |  |  | 0.124 s⁻¹
60 | IgG1/2 N434S/N286H |  |  | 0.149 s⁻¹
61 | IgG1/2 N434S/N286K |  |  | 0.272 s⁻¹
62 | IgG1/2 N434S/N286P |  |  | 0.122 s⁻¹
63 | IgG1/2 N434S/N286R | 2.5e+06 M⁻¹ | 400 nM | 0.0988 s⁻¹
64 | IgG1/2 N434S/N286V |  |  | 0.143 s⁻¹

Row | Substance | Ka | Kd | koff
65 | IgG1/2 N434S/N286Y |  |  | 0.103 s⁻¹
66 | IgG1/2 N434S/Q438D |  |  | 0.104 s⁻¹
67 | IgG1/2 N434S/Q438G |  |  | 0.146 s⁻¹
68 | IgG1/2 N434S/Q438H |  |  | 0.164 s⁻¹
69 | IgG1/2 N434S/Q438I |  |  | 0.104 s⁻¹
70 | IgG1/2 N434S/Q438S |  |  | 0.106 s⁻¹
71 | IgG1/2 N434S/Q438W |  |  | 0.119 s⁻¹
72 | IgG1/2 N434S/R255E |  |  | 0.213 s⁻¹
73 | IgG1/2 N434S/R255F |  |  | 0.136 s⁻¹
74 | IgG1/2 N434S/R255G |  |  | 0.189 s⁻¹
75 | IgG1/2 N434S/R255I | 2.57e+06 M⁻¹ | 390 nM | 0.0943 s⁻¹
76 | IgG1/2 N434S/R255L |  |  | 0.107 s⁻¹
77 | IgG1/2 N434S/R255S |  |  | 0.169 s⁻¹
78 | IgG1/2 N434S/S426F |  |  | 0.285 s⁻¹
79 | IgG1/2 N434S/S426I | 2.23e+06 M⁻¹ | 448 nM | 0.0867 s⁻¹
80 | IgG1/2 N434S/S426W |  |  | 0.275 s⁻¹
81 | IgG1/2 N434S/S426Y |  |  | 0.22 s⁻¹
82 | IgG1/2 N434S/T307E |  |  | 0.0702 s⁻¹
83 | IgG1/2 N434S/T307H |  |  | 0.107 s⁻¹
84 | IgG1/2 N434S/T307N |  |  | 0.125 s⁻¹
85 | IgG1/2 N434S/T307P |  |  | 0.0702 s⁻¹
86 | IgG1/2 N434S/T307R |  |  | 0.193 s⁻¹

Row | Substance | Ka | Kd | koff
87 | IgG1/2 N434S/T307V |  |  | 0.092 s⁻¹
88 | IgG1/2 N434S/T307W |  |  | 0.0627 s⁻¹
89 | IgG1/2 N434S/T307Y |  |  | 0.0847 s⁻¹
90 | IgG1/2 N434S/V309D |  |  | 0.359 s⁻¹
91 | IgG1/2 N434S/V309F |  |  | 0.168 s⁻¹
92 | IgG1/2 N434S/V309K |  |  | 0.617 s⁻¹
93 | IgG1/2 N434S/V309L |  |  | 0.137 s⁻¹
94 | IgG1/2 N434S/V309P |  |  | 0.16 s⁻¹
95 | IgG1/2 N434S/V309W | 3.07e+06 M⁻¹ | 326 nM | 0.0832 s⁻¹
96 | IgG1/2 N434S/V309Y |  |  | 0.129 s⁻¹
97 | IgG1/2 N434S/Y436F |  |  | 0.118 s⁻¹
98 | IgG1/2 N434S/Y436H | 532000 M⁻¹ | 1880 nM | 
99 | IgG1/2 N434S/Y436K | 723000 M⁻¹ | 1380 nM | 
100 | IgG1/2 N434S/Y436L | 1.65e+06 M⁻¹ | 605 nM | 
101 | IgG1/2 N434S/Y436V | 3.56e+06 M⁻¹ | 281 nM | 
102 | IgG1/2 Q311L/N434S | 4.34e+06 M⁻¹ | 231 nM | 
103 | IgG1/2 Q311M/N434S | 4.64e+06 M⁻¹ | 215 nM | 
104 | IgG1/2 Q311V/N434S | 5.77e+06 M⁻¹ | 173 nM | 
105 | IgG1/2 WT | 131000 M⁻¹ | 7660 nM | 
106 | IgG1/2 Y436I | 1.43e+06 M⁻¹ | 699 nM | 
107 | IgG1/2_WT |  | 1180 nM | 
